The supplement of paper PMC10567573

B1: KRT18 (parent)
chain: KSQDLAKIMADIRAQYDELARKNR

Variants of: B1
Assay: protein stability index of a GFP-peptide fusion (GPS, HEK-293T) (PSI 1-6); higher = more stable
Conditions: c terminus: a fixed tail appended
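Further: lentivirally expressed fusions sorted by FACS into six bins by GFP to DsRed ratio, PSI derived from sequencing read proportions per bin multiplied by bin number.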

Point of comparison: I12R, protein stability index 3.74. Against it:
- E18M — lower, 2.54
- E18L — lower, 2.38
- E18N — lower, 2.62
- E18D — lower, 2.16
- E18F — lower, 2.74
- E18P — lower, 2.8
- E18K — lower, 1.99
- E18H — lower, 2.76
- E18S — lower, 2.72
- E18G — lower, 2.66
- E18A — lower, 2.59
- E18I — lower, 2.23
- E18R — lower, 2.39
- E18C — lower, 2.45
- E18Q — lower, 2.68
- D11I — lower, 1.88
- D11M — lower, 2.02
- D11G — lower, 2.12
- D11H — lower, 2.71
- D11N — lower, 2.84
- D11S — lower, 2.21
- D11V — lower, 2.14
- D11W — lower, 1.88
- D11A — lower, 1.86
- D11K — lower, 1.8
- D11R — lower, 2.85
- D11E — lower, 2.14
- D11P — lower, 3.56
- D11C — lower, 1.73
- D11T — lower, 2.02
- D11F — lower, 1.8
- D11L — lower, 1.52
- D11Y — lower, 1.7
- D11Q — lower, 2.96
- Q15H — lower, 1.97
- Q15G — lower, 3.43
- Q15C — lower, 2.37
- Q15I — lower, 1.96
- Q15N — lower, 3
- Q15W — lower, 2.46
- Q15A — lower, 2.06
- Q15K — lower, 2.4
- Q15R — lower, 2.6
- Q15F — lower, 2.34
- Q15E — lower, 2.01
- Q15D — lower, 3.49
- Q15S — lower, 2.57
- Q15V — lower, 2.06
- Q15P — higher, 3.84
- Q15M — lower, 2.14
- Q15L — lower, 1.9
- Q15T — lower, 2.24
- Q15Y — lower, 2.16
- R13D — higher, 4.35
- R13F — lower, 1.93
- R13G — lower, 2.8
- R13Y — lower, 1.75
- R13Q — lower, 2.85
- R13M — lower, 1.83
- R13N — lower, 3.62
- R13L — lower, 2.3
- R13E — higher, 3.75
- R13T — lower, 2.78
- R13A — lower, 2.47
- R13P — higher, 4.12
- R13W — lower, 2.79
- R13S — lower, 2.73
- R13K — lower, 2.92
- R13H — lower, 2.53
- R13V — lower, 2.42
- R13I — lower, 1.92
- R13C — lower, 2.06
- D17I — lower, 2.01
- D17Y — lower, 2.37
- D17T — lower, 2.27
- D17R — lower, 2.61
- D17E — lower, 1.85
- D17L — lower, 2.29
- D17P — lower, 3.16
- D17M — lower, 1.51
- D17K — lower, 2.87
- D17H — lower, 2.67
- D17A — lower, 2.54
- D17S — lower, 2.41
- D17Q — lower, 2.13
- D17V — lower, 2.2
- D17F — lower, 2.14
- D17C — lower, 1.96
- D17W — lower, 1.92
- D17N — lower, 2.65
- D17G — lower, 2.72
- A10E — lower, 3.18
- A10G — higher, 3.81
- A10K — lower, 2.91
- A10V — lower, 3.23
- A10M — lower, 2.3
- A10I — lower, 2.73
- A10T — lower, 3.02
- A10P — higher, 4.14
- A10L — lower, 2.68
- A10Q — lower, 2.89
- A10H — lower, 2.75
- A10W — lower, 2.54
- A10F — lower, 2.41
- A10D — lower, 2.57
- A10Y — lower, 2.51
- A10R — lower, 2.4
- A10C — lower, 2.91
- A10S — lower, 2.84
- A10N — lower, 3.09
- Y16V — lower, 3.58
- Y16L — lower, 3.65
- Y16W — lower, 2.67
- Y16T — higher, 3.9
- Y16P — higher, 4.47
- Y16F — lower, 2.83
- Y16I — lower, 3.08
- Y16H — lower, 3.32
- Y16K — higher, 3.93
- Y16R — higher, 3.79
- Y16M — lower, 3.31
- Y16Q — higher, 3.89
- Y16S — higher, 3.88
- Y16G — lower, 3.28
- Y16E — higher, 4.37
- Y16A — higher, 4.24
- Y16C — higher, 3.82
- Y16D — higher, 4.38
- Y16N — higher, 4.13
- I12L — lower, 2.65
- I12V — lower, 3.28
- I12N — higher, 4.26
- I12K — higher, 4.45
- I12C — lower, 3.23
- I12P — higher, 4.56
- I12H — lower, 3.55
- I12T — higher, 4.07
- I12S — higher, 4.36
- I12D — higher, 4.77
- I12W — lower, 1.88
- I12Y — lower, 3.55
- I12G — higher, 4.45
- I12F — lower, 3.03
- I12M — higher, 4.04
- I12A — higher, 4
- I12E — higher, 5.46
- I12Q — higher, 4.41
- A14N — lower, 2.73
- A14S — lower, 3.63
- A14T — lower, 2.58
- A14D — lower, 2.8
- A14C — lower, 3.05
- A14M — lower, 2.67
- A14P — lower, 3.66
- A14K — lower, 2.4
- A14I — lower, 3.21
- A14F — lower, 2.74
- A14V — lower, 2.68
- A14L — lower, 2.73
- A14W — lower, 1.97
- A14Q — lower, 2.14
- A14H — lower, 3.16
- A14Y — lower, 3.27
- A14R — lower, 2.71
- A14G — lower, 3.39
- A14E — lower, 2.89
